Tested on: Escherichia coli TOP10
Experiment: shrunken log2 fold change of peptide-encoding DNA abundance (4.5 h post-induction vs induction); higher = less antimicrobial activity (less host growth inhibition)
Settings: time post-induction: 4.5 h; library: site-saturation at positions 5, 18, 19, 20
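Also: peptides expressed intracellularly from a pBAD plasmid library in pooled LB shake-flask culture, induced with 0.3% L-arabinose, DNA abundance read by NGS, three biological replicates, DESeq2 with apeglm shrinkage.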

RRIRIRPPRLPRPRPRPHVIPRP was tested, and the “shrunken log2 fold change” value was -0.0939.
In the case of RRIRNRPPRLPRPRPRPFTKPRP, the “shrunken log2 fold change” value is reported as -0.0763.
With RRIRLRPPRLPRPRPRPSPAPRP the “shrunken log2 fold change” value was 0.254.
In the case of RRIRWRPPRLPRPRPRPMRDPRP, the “shrunken log2 fold change” value is reported as 0.814.
RRIRIRPPRLPRPRPRPNGVPRP was tested, and the “shrunken log2 fold change” value was -0.37.
RRIRPRPPRLPRPRPRPQSCPRP was tested, and the “shrunken log2 fold change” value was -0.0478.
In the case of RRIRLRPPRLPRPRPRPPWGPRP, the “shrunken log2 fold change” value is reported as 0.203.
In the case of RRIRCRPPRLPRPRPRPIKIPRP, the “shrunken log2 fold change” value is reported as -0.436.
For RRIRGRPPRLPRPRPRPIVPPRP, the “shrunken log2 fold change” value was 0.02.
In the case of RRIRHRPPRLPRPRPRPDNVPRP, the “shrunken log2 fold change” value is reported as -0.02.
RRIRWRPPRLPRPRPRPHRMPRP was tested, and the “shrunken log2 fold change” value was -0.203.
With RRIRDRPPRLPRPRPRPIGEPRP the “shrunken log2 fold change” value was -0.00228.
With RRIRDRPPRLPRPRPRPDKAPRP the “shrunken log2 fold change” value was -0.00804.
RRIRSRPPRLPRPRPRPILGPRP was tested, and the “shrunken log2 fold change” value was -0.016.
In the case of RRIRSRPPRLPRPRPRPCEGPRP, the “shrunken log2 fold change” value is reported as -0.00992.
For RRIRNRPPRLPRPRPRPTGMPRP, the “shrunken log2 fold change” value was 0.236.
RRIRLRPPRLPRPRPRPWDLPRP was tested, and the “shrunken log2 fold change” value was -0.00277.
With RRIRYRPPRLPRPRPRPNYEPRP the “shrunken log2 fold change” value was -0.399.
For RRIRARPPRLPRPRPRPYEPPRP, the “shrunken log2 fold change” value was 0.116.
In the case of RRIRKRPPRLPRPRPRPWLKPRP, the “shrunken log2 fold change” value is reported as 0.0705.
In the case of RRIRHRPPRLPRPRPRPCYGPRP, the “shrunken log2 fold change” value is reported as -0.238.
For RRIRNRPPRLPRPRPRPPPPPRP, the “shrunken log2 fold change” value was 1.25.
In the case of RRIRHRPPRLPRPRPRPWILPRP, the “shrunken log2 fold change” value is reported as -0.223.
RRIRHRPPRLPRPRPRPVPLPRP was tested, and the “shrunken log2 fold change” value was -0.396.
For RRIRWRPPRLPRPRPRPHMMPRP, the “shrunken log2 fold change” value was -0.349.
With RRIRRRPPRLPRPRPRPGWKPRP the “shrunken log2 fold change” value was 0.136.
In the case of RRIRSRPPRLPRPRPRPTFAPRP, the “shrunken log2 fold change” value is reported as 0.232.
With RRIRIRPPRLPRPRPRPRGFPRP the “shrunken log2 fold change” value was 0.199.
For RRIRRRPPRLPRPRPRPAIGPRP, the “shrunken log2 fold change” value was 0.136.
With RRIRDRPPRLPRPRPRPTHHPRP the “shrunken log2 fold change” value was 0.224.
For RRIRCRPPRLPRPRPRPMNEPRP, the “shrunken log2 fold change” value was -0.307.
For RRIRYRPPRLPRPRPRPINFPRP, the “shrunken log2 fold change” value was -0.299.
For RRIRMRPPRLPRPRPRPCCAPRP, the “shrunken log2 fold change” value was 0.78.
RRIRWRPPRLPRPRPRPSVRPRP was tested, and the “shrunken log2 fold change” value was 0.117.
With RRIRNRPPRLPRPRPRPCNVPRP the “shrunken log2 fold change” value was -0.00963.
RRIRCRPPRLPRPRPRPPANPRP was tested, and the “shrunken log2 fold change” value was 0.521.
For RRIRDRPPRLPRPRPRPQKDPRP, the “shrunken log2 fold change” value was -0.294.
RRIRQRPPRLPRPRPRPHMFPRP was tested, and the “shrunken log2 fold change” value was 0.0177.
With RRIRYRPPRLPRPRPRPEKSPRP the “shrunken log2 fold change” value was -0.0559.
With RRIRYRPPRLPRPRPRPYYVPRP the “shrunken log2 fold change” value was 0.0372.
For RRIRWRPPRLPRPRPRPTPFPRP, the “shrunken log2 fold change” value was 0.153.
In the case of RRIRARPPRLPRPRPRPAFCPRP, the “shrunken log2 fold change” value is reported as 0.645.
With RRIRERPPRLPRPRPRPYTEPRP the “shrunken log2 fold change” value was 0.0251.
With RRIRFRPPRLPRPRPRPNPYPRP the “shrunken log2 fold change” value was -0.238.
For RRIRARPPRLPRPRPRPIWPPRP, the “shrunken log2 fold change” value was 0.353.
With RRIRSRPPRLPRPRPRPFVMPRP the “shrunken log2 fold change” value was -0.0833.
In the case of RRIRYRPPRLPRPRPRPITSPRP, the “shrunken log2 fold change” value is reported as 0.0314.
RRIRARPPRLPRPRPRPIYWPRP was tested, and the “shrunken log2 fold change” value was 0.0177.
With RRIRCRPPRLPRPRPRPWCPPRP the “shrunken log2 fold change” value was -0.281.
For RRIRKRPPRLPRPRPRPAYGPRP, the “shrunken log2 fold change” value was 0.397.
For RRIRKRPPRLPRPRPRPSQMPRP, the “shrunken log2 fold change” value was 0.247.
With RRIRERPPRLPRPRPRPHPKPRP the “shrunken log2 fold change” value was 0.0177.
With RRIRPRPPRLPRPRPRPRRVPRP the “shrunken log2 fold change” value was 0.098.
For RRIRARPPRLPRPRPRPPCAPRP, the “shrunken log2 fold change” value was 0.598.
In the case of RRIRDRPPRLPRPRPRPYTFPRP, the “shrunken log2 fold change” value is reported as -0.0443.
RRIRTRPPRLPRPRPRPTILPRP was tested, and the “shrunken log2 fold change” value was -0.453.
With RRIRFRPPRLPRPRPRPSHDPRP the “shrunken log2 fold change” value was -0.142.
In the case of RRIRTRPPRLPRPRPRPNSYPRP, the “shrunken log2 fold change” value is reported as -0.188.
For RRIRLRPPRLPRPRPRPRVSPRP, the “shrunken log2 fold change” value was -0.0787.
RRIRARPPRLPRPRPRPASLPRP was tested, and the “shrunken log2 fold change” value was 0.196.
With RRIRRRPPRLPRPRPRPFKLPRP the “shrunken log2 fold change” value was -0.0153.
With RRIRIRPPRLPRPRPRPHHMPRP the “shrunken log2 fold change” value was -1.2.
For RRIRDRPPRLPRPRPRPETWPRP, the “shrunken log2 fold change” value was 0.0111.
With RRIRTRPPRLPRPRPRPVRAPRP the “shrunken log2 fold change” value was 0.514.
With RRIRDRPPRLPRPRPRPKTCPRP the “shrunken log2 fold change” value was 0.00179.
With RRIRDRPPRLPRPRPRPGSGPRP the “shrunken log2 fold change” value was 0.499.
For RRIRMRPPRLPRPRPRPCYTPRP, the “shrunken log2 fold change” value was -0.0524.
With RRIRHRPPRLPRPRPRPFLYPRP the “shrunken log2 fold change” value was -0.624.
RRIRVRPPRLPRPRPRPKIAPRP was tested, and the “shrunken log2 fold change” value was 0.0892.
RRIRIRPPRLPRPRPRPSQQPRP was tested, and the “shrunken log2 fold change” value was -0.11.
For RRIRSRPPRLPRPRPRPSLCPRP, the “shrunken log2 fold change” value was -0.0295.
In the case of RRIRMRPPRLPRPRPRPHATPRP, the “shrunken log2 fold change” value is reported as 2.78.
For RRIRIRPPRLPRPRPRPKYEPRP, the “shrunken log2 fold change” value was -0.83.
RRIRQRPPRLPRPRPRPWFHPRP was tested, and the “shrunken log2 fold change” value was 0.00902.
With RRIRRRPPRLPRPRPRPALPPRP the “shrunken log2 fold change” value was 0.48.
In the case of RRIRWRPPRLPRPRPRPQDKPRP, the “shrunken log2 fold change” value is reported as -0.208.
RRIRRRPPRLPRPRPRPFVMPRP was tested, and the “shrunken log2 fold change” value was -0.0623.
In the case of RRIRFRPPRLPRPRPRPVHSPRP, the “shrunken log2 fold change” value is reported as -0.126.
With RRIRNRPPRLPRPRPRPCWMPRP the “shrunken log2 fold change” value was -0.18.
For RRIRFRPPRLPRPRPRPLWNPRP, the “shrunken log2 fold change” value was -0.89.
With RRIRMRPPRLPRPRPRPNKHPRP the “shrunken log2 fold change” value was -0.158.
In the case of RRIRMRPPRLPRPRPRPLCIPRP, the “shrunken log2 fold change” value is reported as 0.21.
With RRIRLRPPRLPRPRPRPAIPPRP the “shrunken log2 fold change” value was -0.0222.
With RRIRPRPPRLPRPRPRPHVDPRP the “shrunken log2 fold change” value was -0.029.
For RRIRARPPRLPRPRPRPYYFPRP, the “shrunken log2 fold change” value was -0.701.
For RRIRNRPPRLPRPRPRPPPTPRP, the “shrunken log2 fold change” value was 0.867.
RRIRSRPPRLPRPRPRPAFVPRP was tested, and the “shrunken log2 fold change” value was 0.577.
In the case of RRIRHRPPRLPRPRPRPKTNPRP, the “shrunken log2 fold change” value is reported as -0.376.
With RRIRWRPPRLPRPRPRPGQIPRP the “shrunken log2 fold change” value was -0.0275.
RRIRRRPPRLPRPRPRPVDAPRP was tested, and the “shrunken log2 fold change” value was 0.804.
For RRIRCRPPRLPRPRPRPIVHPRP, the “shrunken log2 fold change” value was -0.7.
With RRIRTRPPRLPRPRPRPMTDPRP the “shrunken log2 fold change” value was 0.0245.
With RRIRRRPPRLPRPRPRPNACPRP the “shrunken log2 fold change” value was -0.00291.
In the case of RRIRSRPPRLPRPRPRPVCPPRP, the “shrunken log2 fold change” value is reported as 0.0554.
With RRIRNRPPRLPRPRPRPQMMPRP the “shrunken log2 fold change” value was -0.227.
With RRIRGRPPRLPRPRPRPCESPRP the “shrunken log2 fold change” value was 0.169.
With RRIRARPPRLPRPRPRPGRWPRP the “shrunken log2 fold change” value was 0.609.
RRIRMRPPRLPRPRPRPCKVPRP was tested, and the “shrunken log2 fold change” value was -0.0465.
RRIRMRPPRLPRPRPRPYIDPRP was tested, and the “shrunken log2 fold change” value was -0.227.
For RRIRCRPPRLPRPRPRPTGEPRP, the “shrunken log2 fold change” value was 0.156.
In the case of RRIRWRPPRLPRPRPRPLQEPRP, the “shrunken log2 fold change” value is reported as 0.36.
RRIRPRPPRLPRPRPRPMTKPRP was tested, and the “shrunken log2 fold change” value was 0.0497.
With RRIRMRPPRLPRPRPRPPAIPRP the “shrunken log2 fold change” value was 0.911.
In the case of RRIRLRPPRLPRPRPRPIHFPRP, the “shrunken log2 fold change” value is reported as -0.77.
In the case of RRIRSRPPRLPRPRPRPFDHPRP, the “shrunken log2 fold change” value is reported as -0.488.
With RRIRPRPPRLPRPRPRPERQPRP the “shrunken log2 fold change” value was 0.153.
In the case of RRIRHRPPRLPRPRPRPELAPRP, the “shrunken log2 fold change” value is reported as -0.0268.
With RRIRERPPRLPRPRPRPFSRPRP the “shrunken log2 fold change” value was -0.0038.
For RRIRMRPPRLPRPRPRPAYLPRP, the “shrunken log2 fold change” value was 0.0142.
With RRIRRRPPRLPRPRPRPWYMPRP the “shrunken log2 fold change” value was -0.0284.
In the case of RRIRQRPPRLPRPRPRPSFGPRP, the “shrunken log2 fold change” value is reported as 0.0622.
In the case of RRIRFRPPRLPRPRPRPFACPRP, the “shrunken log2 fold change” value is reported as -0.189.
For RRIRKRPPRLPRPRPRPQYHPRP, the “shrunken log2 fold change” value was -0.432.
With RRIRSRPPRLPRPRPRPKMAPRP the “shrunken log2 fold change” value was -0.13.
With RRIRSRPPRLPRPRPRPSNYPRP the “shrunken log2 fold change” value was -0.869.
RRIRPRPPRLPRPRPRPDQPPRP was tested, and the “shrunken log2 fold change” value was -0.0572.
RRIRERPPRLPRPRPRPNNNPRP was tested, and the “shrunken log2 fold change” value was -0.977.
In the case of RRIRHRPPRLPRPRPRPLISPRP, the “shrunken log2 fold change” value is reported as -0.387.
RRIRYRPPRLPRPRPRPVCQPRP was tested, and the “shrunken log2 fold change” value was -0.181.
For RRIRGRPPRLPRPRPRPKGDPRP, the “shrunken log2 fold change” value was 0.0175.
RRIRYRPPRLPRPRPRPIPRPRP was tested, and the “shrunken log2 fold change” value was 0.0268.
For RRIRARPPRLPRPRPRPLMFPRP, the “shrunken log2 fold change” value was 0.187.
For RRIRQRPPRLPRPRPRPYIYPRP, the “shrunken log2 fold change” value was -0.0737.
With RRIRFRPPRLPRPRPRPDTCPRP the “shrunken log2 fold change” value was -0.21.
For RRIRNRPPRLPRPRPRPCVEPRP, the “shrunken log2 fold change” value was -0.209.

Reference: the supplement of paper PMC9112550, “Optimization of the antimicrobial peptide Bac7 by deep mutational scanning” (BMC Biology, 2022)
